Measured values as given in the DeepSol protein solubility set.

Assay: soluble on expression in E. coli; label from the status in PepcDB or PDB records

| Sequence | soluble on expression in E. coli |
| --- | --- |
| GGGGGGMVNLQRARTPIHRVGFARPPLHLAIPHPATTTPCAMSAESLVLALVLLALCGAVMLRWISQRHAHDSAVGDKALTHKGRLRLSQNASGSAAGRCGSDDGNDSDQGGVDDDNGGAVGRRRRGAGGVLRRRRPQERGGNARRGGSDGDENSYDGDDAGGIPETDANGVKLTRLQRKKLAKEREREERRQAQEAALEAQRQRMDVNELRDAEAALREEELKAAEEAALQQLRRDKKKAEDEEYAKWVSHIGVEERGELGDEERERQTRMQSFLLDRAAQVQARARRSAAGAKSSPSEEECIHVLILQTAARDLKVSVEELVSTIEQLSQVDKVHGVFDDRGKYVFIAPEQFPLLAQFIRLRGRVSVQEFTRECNRVVMQS | soluble |
| GGNANMFMNLSREAQSETRRHHYLSSSQKEAKDFAMFADTSNPTLVRTIGVRNNLSLITDPRTGGTALMTDQSIPRKFVLGSKSSAPGENAKVFRDEMRAAGHNVSTKQAGELLREVQSDSDDDNFPDPDDFIMSRFTG | not soluble |
| GGNSKSRNDRTETVDKEVIKAPEFDADSAYQYIQVQADFGPRVPNTQAHKECGEYLAGQLEKFGAKVYNQYADLIAYDGTILKSRNIIGAYKPESKKRILLCAHWDSRPYADNDPDPKNHHTPILGVNDGASGVGVLLEIARQIQKEQPALGIDIVFFDSEDYGIPEFYDGKYKQDTWCLGSQYWARTPHVQNYNARYGILLDMVGGKDATFYYEGYSARTARSEMKKIWKKAHELGYGKYFVKEDGGETVDDHIYVNKLARIPCVDIINYDAGNPQSSFGSFWHTVNDTMENIDRNTLKAVGQTVMDVIYNEK | soluble |
| GGTAYWKNPDQFTAFNTGLHALLREKSYNFFLLGEPRADIYGDNPIGGEASQGMERLPFNTINKENVGISNYGDMYKIINQINQMIAKTTETTILTEATQNYYLGEAYGMRAYLYFHLLRSWGDVVLYLDYTEGQNLDLSNITKGVSPATEVMEQIKKDIQASENAFGSDYSFKLGRHFWSAAATQMLKGEAYLWSGRQMNGGNSDYTIAKNAFENVKKADVGLVTSSFKDIFSFENKKNKEMIFTIHNGKDEYEMWGGYYRMRLIPAQDKMVKIYCDENGNSFVGTPDAQLNGLTQLQVRREFYFKGFRNNDTRWTTSLKAVYKKDAQGVVSYFGPITYKFQGTMLEGGSTRSFLDDFPIYRYADCLLQLAMAKVLLGEDPTEEINAVRERAYGSKYFNEHKAEIAYPNDNDPEFYTDNKWMKPDNAGALEAILKERLREFMFEGKRWYDIRLLGWDYVHQYSSAEQSRLLWPIDAGTLTNNSALKQTPGYE | soluble |
| GHMGKPDISAKDLRNIMYDHLPGFGTAFHQLVQVICKLGKDSNSLDIIHAEFQASLAEGDSPQCALIQITKRVPIFQDAAPPVIHIRSRGDIPRACQKSLRPVPPSPKIDRGWVCVFQLQDGKTLGLAI | soluble |
| GHMPGRAPGSTLARVGSIPAGDDVLDPDEPTYDLPRVAELLGVPVSKVAQQLREGHLVAVRRAGGVVIPQVFFTNSGQVVKSLPGLLTILHDGGYRDTEIMRWLFTPDPSLTITRDGSRDAVSNARPVDALHAHQAREVVRRAQAMAY | soluble |
| GHMSRRSFKNRVLAFFKGYPSFYYPATLVAPVHSAVTSSIMYKVQFDDATMSTVNSNQIKRFFLKKGDVVQSTRLGKIKHTVVKTFRSTNEQLSLIAVDALNNDMVILAHGEIEVTVPISTIYVAPVNIRRFQGRDLSFSTLKDMKFEETSFL | soluble |
| GIDTVGGKMTVCQLYDKKNSQRKNIKRATEKGRQYLMNALKNDPLGMRAIDTVKQSDAKEWAIRMSEKGYAYKTIDNYKRSLKASFYMAIQDDCIRKNPFDFKLSDVLEDDTEQKVILTPEQEERLLAFMEKDKIYSKYYDEVVLLLETGLRISEFCGLTMHIDMQNRILNIDHQLLKDSEIGYYIETPKTKNGKRELPLTERAYQAIQRILKSRGKAQPLIVGGYSNFLFLNREGLPKVAGNYEGMVRGLIKKYNKYHTDKLPNITPHSFRHTYCTNMANRGMNPNTLQYLMGHANITMTLGYYAHGTFQSAKAELERLAC | not soluble |
| GISPNVLNNMKSYMKHSNIRNIIINIMAHELSVINNHIKYINELFYKLDTNHNGSLSHREIYTVLASVGIKKWDINRILQALDINDRGNITYTEFMAGCYRWKNIESTFLKAAFNKIDKDEDGYISKSDIVSLVHDKVLDNNDIDNFFLSVHSIKKGIPREHIINKISFQEFKDYMLSTF | soluble |
| GKKQEPYEQVTIDVEEQHQGSVMEALGIRKGEVRDMLPDGKGRVRLEYIIPSRGLIGFRGDFMTMTSGTGLLYSSFSHYDEIKGGEIGQRKNGVLISNATGKALGYALFGLQERGKLMIDANIEVYEGQI | not soluble |
| GKSPEAECNKITEEPKCSEEKICSWHKEVKAGEKNCQFNSTKASKS | soluble |
| GLEVDNNSLLRNIYSTIVYEYSDIVIDFKTSHNLVTKKLDVRDARDFFINSEMDEYAANDFKTGDKIAVFSVPFDWNYLSKGKVTAYTYGGITPYQKTSIPKNIPVNLWINGKQISVPYNEISTNKTTVTAQEIDLKVRKFLIAQHQLYSSGSSYKSGRLVFHTNDNSDKYSFDLFYVGYRDKESIFKVYKDNKSFNIDKIGHLDIEIDS | soluble |
| GLLAIFIVFAISWGALVEITPLIFQKQTTESVENLRVYTPLEMEGRDIYIREGCNVCHSQMVRPFRSETERYGHYSVAGESVWEHPFLWGSKRTGPDLARVGGRYSDEWHRVHLLDPRELVPESNMPGFPWLAENVLDGKLTQKKLEVFRDQFGVPYEDETIANAAKEVEGKTEMDAIIAYLQSLGH | not soluble |
| GMAFMEKIFPDILEAIRNEEIIKESKKIPMPYFGLFALVIFDKVKELGSETSLYEIGEEFGKMLSPKNIEELKKIFKLMNFGDLEIDENKILLKNPPYKIKLSNPPYQWVSKEEPIHDFIAGILAGCLEEIFYYYFVVNEVECVSQGKDKCVFEVKEVDELNK | soluble |
| GMAKKTLILYYSWSGETKKMAEKINSEIKDSELKEVKVSEGTFDADMYKTSDIALDQIQGNKDFPEIQLDNIDYNNYDLILIGSPVWSGYPATPIKTLLDQMKNYRGEVASFFTSAGTNHKAYVSHFNEWADGLNVIGVARDDSEVDKWSK | soluble |
| GMANLLSTCTSESGNIQHISPQNAGWEYVGFDVWQLKAGESITLPSDERERCLVLVAGLASVKAADSFFYRIGQRMSPFERIPAYSVYLPHHTEAKVTAETDLELAVCSAPGFGELPVRLISPQEVGVEHRGKGRNQRLVHNILPDSQLADSLLVVEVYTNAGATSSWPAHKHDTAVEGQETYLEETYYHRFNPPQGFCLQRVYTDDRSLDECMAVYNRDVVKVPKGYHPVATIAGYDNYYLNVMAGPLRKWRFTWEENHAWINSPDYPR | soluble |
| GMASVLSAATATDQGPVRENNQDACLADGILYAVADGFGARGHHASATALKTLSAGFAAAPDRDGLLEAVQQANLRVFELLGDEPTVSGTTLTAVAVFEPGQGGPLVVNIGDSPLYRIRDGHMEQLTDDHSVAGELVRMGEITRHEARWHPQRHLLTRALGIGPHIGPDVFGIDCGPGDRLLISSDGLFAAADEALIVDAATSPDPQVAVRRLVEVANDAGGSDNTTVVVIDLG | soluble |
| GMATVRLLDDAEISTLPEVKAVFDDIRATRGSDFVNNIWRGLANDPALLKRTWEQVKTVMVGEGALDPLTREMIYLAVSTANSCSYCAHSHTAAARAKGMTPAQHAEVLAIIGLAAQTNALVTAMQIPVDEAFLVDGK | soluble |
| GMATYNYPEFGAGLWHFANYIDRYAVDGYGPALSTIDQINAAKEVGELSYVDLPYPFTPGVTLSEVKDALKDAGLKAIGITPEIYLQKWSRGAFTNPDPAARAAAFELMHESAGIVRELGANYVKVWPGQDGWDYPFQVSHKNLWKLAVDGMRDLAGANPDVKFAIEYKPREPRVKMTWDSAARTLLGIEDIGLDNVGVLLDFGHALYGGESPADSAQLIIDRGRLFGMDVNDNLRGWDDDLVVGTVHMTEIFEFFYVLKINNWQGVWQLDQFPFRENHVEAAQLSIRFLKHIYRALDKLDIPALQAAQEAQNPLQAQRIVQDALLSSITVSE | soluble |
| GMEFYEVIKKRKSIKKFEQTAIDRDKLLKIIDMAMRAPSWKNKTPYKFIVVESDKLKLDIANAIENKTSAASEAVLNSPMTIVAVANPEESGDVSGKEIYLIDTAIAMEHIVLGATDEGYGTCWIAAFNENKIKEALKIPDNLRVVALTPLGVPKDSAEDEPHHPKKDMDEYLYIDKWGTSFMESNVKILEKN | soluble |
| GMENEENSAREQEADDFLHIASVKEDWGGDGRGRMNLSGRRTAIAKEYLPRQYQFFDTNTVMEKQGWRVRGMPDNIAPGSRRLLTWHDSGASTSRVVLPPKFEAPSGIFTADLEIFVIKGAIQLGEWQLNKHSYSFIPAGVRIGSWKVLGGEEAEILWMENGSVPLEYKYAQEDHPDARLSDFIPALDSKLLPWGKADTVQFVQANKKWLRKDINGGGVWLLAILPHFDNKYQMIQPYNEEGYCLTGYCDVGDYRIVKDHYWYCPSFSTLPRHITDDGGLFFVRVDRDLSKVATVLSYAPQDT | soluble |
| GMEQQHPTIHTLKIETEFFKAVKERRKTFEIRKNDRNFQVGDILILEEYMNGMYLDDECEAEVIYITDYAQREGYVVLGIELH | soluble |
| GMFNESDAPQPPKVLSTPLEIAANLRQLQESHDPLIITFHDRSHRFQSYVVHVDRESNTLALDEMIPRDGEKFIENGEHFRVEGFHDGVRIAWECDHALKISEVDGHRCYSGPLPQEVTYHQRRNAFRAALKLSQLVDIILDGAHLKGNGAMRGKLLDISATGCKLRFEGNVEDRLQLGQVYERFKAGNPLGLVDTMVELRHLHYEERINTTFAGVRFHNLSGQAQRKIESFVYQLQREARRFDKDDY | soluble |
| GMGSYQLLVPPPEALSKPLSVPTRLLLGPGPSNLAPRVLAAGSLRMIGHMQKEMLQIMEEIKQGIQYVFQTRNPLTLVVSGSGHCAMETALFNLLEPGDSFLTGTNGIWGMRAAEIADRIGARVHQMIKKPGEHYTLQEVEEGLAQHKPVLLFLVHGESSTGVVQPLDGFGELCHRYQCLLLVDSVASLGGVPIYMDQQGIDIMYSSSQKVLNAPPGISLISFNDKAKYKVYSRKTKPVSFYTDITYLAKLWGCEGETRVIHHTTPVTSLYCLRESLALIAEQGLENCWRRHREATAHLHKHLQEMGLKFFVKDPEIRLPTITTVTVPAGYNWRDIVSYVLDHFSIEISGGLGPTEERVLRIGLLGYNATTENVDRVAEALREALQHCPKNKL | soluble |
| GMINTKEDFLLLIKQIEQKSGYKKPKAFGIARLDRGQLNKNKILQASFALINYEQNFGSAAIMLEAFMQRGVEIDFNASEFVQTLKLEDIDFALSCFKPFLEEDGHQNIDLLKIIKDKFKDDEFSFVCLFEDKEPLSVESIYLKLYLLSTKKVPLRSINLNGAFGLLSNVAWSDDKPIELEYLRANEMRLKMSNQYPKIDFVDKFPRFLAHIIPEDNTRILESSKVRMGASLAAGTTIMPGASYVNFNAGTTGACMVEGRISSSAIVGEGSDVGGGASILGVLSGTSGNAISVGKACLLGANSVTGIPLGDNCIVDAGIAVLEGTKFLLKDAEELAKLNPYFNFDKEIYKGLELKGLNGLHFRQDSISGAMIVALNKKAVKLNEALH | soluble |
| GMLPRLCCLEKGPNGYGFHLHGEKGKLGQYIRLVEPGSPAEKAGLLAGDRLVEVNGENVEKETHQQVVSRIRAALNAVRLLVVDPEEDSFL | soluble |
